Results reported in PMC13061415.

Tests used:
[1] = target: muskelin CTLH-CRA domain (205–735 Δ248–625) (UniProt Q99PV3); experiment: ITC; details: for dG / other: -TΔS / other: ΔH: read off a plot
Wdr26 (102–641) (mouse) = Wdr26 (102–641) (mouse) (UniProt Q8C6G8); experiment: ITC; competition: RanBP9-Twa1 or RanBP10-Twa1 complex (160 μM) titrated into pre-formed Twa1_52-muskelin or Twa1_52-Wdr26 complex (16 μM); 25°C; competitive binding model with the parameters of the first titration
muskelin (1–735) (rat) = muskelin (1–735) (rat) (UniProt Q99PV3); experiment: as above
[2] = target: muskelin CTLH-CRA domain (205–735 Δ248–625) (UniProt Q99PV3); experiment: ITC; details: 160 µM muskelin + 16 µM RanBP10
[3] = target: RanBP10 CTLH-CRA domain (315–608, Δ382–529), wild type (mouse); experiment: ITC; muskelin CTLH-CRA (160 μM, syringe) titrated into RanBP10 or Twa1 CTLH-CRA variants (16 μM, cell); 25°C; 20 mM tricine pH 8.0, 500 mM NaCl, 1 mM TCEP; one-site model
[4] = target: Maea CTLH-CRA domain (156-279) (mouse) (UniProt Q4VC33); experiment: SEC-MALS; purified CTLH-CRA domains alone or mixed (RanBP10 and Twa1 variants with Maea or muskelin), final concentration 250 μM, Superdex 75 10/300 GL
[5] = target: RanBP10 CTLH-CRA domain Q519G (mouse); experiment: SEC-MALS; RanBP10 Q519G (Q547G) dilution series; molar masses of 0.3 ml peak fractions against concentration, one-site binding fit; dimer to monomers
[6] = target: RanBP10 CTLH-CRA domain (315–608, Δ382–529), wild type (mouse); experiment: SEC-MALS; CTLH-CRA domain complexes co-expressed in E. coli and purified as complexes; Superdex 75 10/300 GL; 20 mM tricine pH 8.0, 500 mM NaCl, 1 mM TCEP
[7] = target: RanBP10 CTLH-CRA domain (315–608, Δ382–529), wild type; experiment: ITC; details: 160 µM muskelin + 16 µM RanBP10
[8] = target: RanBP10 CTLH-CRA domain (315–608, Δ382–529), wild type; experiment: ITC; details: 160 µM muskelin + 16 µM RanBP10; remark: listed apart in the source
[9] = 160 µM muskelin + 16 µM Twa1 mutants
[10] = 160 µM muskelin + 16 µM RanBP10 mutants
[11] = 160 µM muskelin + 16 µM RanBP10 mutants, parent: est. 4.1 kcal/mol
[12] = 160 µM muskelin + 16 µM RanBP10 mutants, parent: est. -11 kcal/mol
[13] = 160 µM muskelin + 16 µM RanBP10 mutants, parent: est. -16 kcal/mol

Sequence of Maea CTLH-CRA domain (156-279) (mouse) (Q4VC33 156-279): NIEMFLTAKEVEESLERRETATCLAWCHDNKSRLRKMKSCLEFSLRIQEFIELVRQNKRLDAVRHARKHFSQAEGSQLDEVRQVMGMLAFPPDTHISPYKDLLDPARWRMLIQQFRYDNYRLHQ
Sequence of Wdr26 (102–641) (mouse) (Q8C6G8 102-641): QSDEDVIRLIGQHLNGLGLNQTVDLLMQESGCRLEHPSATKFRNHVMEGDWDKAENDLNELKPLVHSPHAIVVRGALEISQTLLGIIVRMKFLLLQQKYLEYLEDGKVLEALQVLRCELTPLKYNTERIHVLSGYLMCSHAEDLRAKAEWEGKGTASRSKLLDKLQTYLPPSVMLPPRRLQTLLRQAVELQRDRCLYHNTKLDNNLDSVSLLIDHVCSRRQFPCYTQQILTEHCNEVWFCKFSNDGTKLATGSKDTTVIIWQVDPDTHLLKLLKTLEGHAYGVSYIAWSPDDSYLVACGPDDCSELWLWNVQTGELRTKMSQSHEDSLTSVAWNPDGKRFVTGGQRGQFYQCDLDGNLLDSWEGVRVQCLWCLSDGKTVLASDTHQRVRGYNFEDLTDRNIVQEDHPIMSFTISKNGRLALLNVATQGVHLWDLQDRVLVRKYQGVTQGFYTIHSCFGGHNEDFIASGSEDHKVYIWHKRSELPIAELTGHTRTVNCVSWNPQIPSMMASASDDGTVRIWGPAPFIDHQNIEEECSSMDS

Row | Substance | Kd [1, 10] | other: molar ratio n [1, 10] | other: -TΔS [1, 11] | dG [1, 12] | other: ΔH [1, 13] | Kd [2] | other results
1 | Twa1 CTLH-CRA domain (58-190), wild type (from UniProt Q9D7M1) A125G; Q126R; T127del; A130Q; L140K; M143L; E144K; L147F; F152Y |  |  |  |  |  |  | Kd [1, 9]: 795 nM; other: molar ratio n [1, 9]: 0.94; dG [1, 9]: -8.3 kcal/mol; other: -TΔS [1, 9]: -0.4 kcal/mol; other: ΔH [1, 9]: -7.9 kcal/mol
2 | RanBP10 (57–648)-Twa1 (1–228) complex (from UniProt Q9D7M1 1-228) |  |  |  |  |  |  | Kd (Wdr26 (102–641) (mouse)): 0.0623 nM; Kd (muskelin (1–735) (rat)): 0.07 nM
3 | RanBP10 CTLH-CRA domain (315–608, Δ382–529), wild type F543L | 83.7 nM | 0.88 | -0.7 kcal/mol | -9.6 kcal/mol | -8.8 kcal/mol | 83.7 nM | 
4 | RanBP10 CTLH-CRA domain (315–608, Δ382–529), wild type Y548F | 54.8 nM | 1.06 | 1.9 kcal/mol | -10 kcal/mol | -12 kcal/mol | 54.8 nM | 
5 | muskelin CTLH-CRA domain (205–735 Δ248–625) (from UniProt Q99PV3 205-735) (domain or fragment) |  |  |  |  |  |  | Kd [3]: 4.33 nM
6 | RanBP10 CTLH-CRA domain (315–608, Δ382–529), wild type F543L; V556F | 338 nM | 0.98 | -0.5 kcal/mol | -8.9 kcal/mol | -8.4 kcal/mol | 338 nM | 
7 | RanBP10 CTLH-CRA domain (315–608, Δ382–529), wild type Y548F; V556F | 298 nM | 0.95 | -0.6 kcal/mol | -9 kcal/mol | -8.3 kcal/mol | 298 nM | 
8 | RanBP10 CTLH-CRA domain Q519G, F543L, Y548F, V556F (quadruple mutant) (from UniProt Q6VN19 315-608) (domain or fragment) |  |  |  |  |  |  | stoichiometry N [4]: 1
9 | Twa1 CTLH-CRA domain (58-190), wild type (from UniProt Q9D7M1) A125G; Q126R; T127del; Q128E; A130Q; L140K; M143L; E144Q; L147F; A148S; F152Y; F160V |  |  |  |  |  |  | Kd [1, 9]: 247 nM; other: molar ratio n [1, 9]: 1.05; dG [1, 9]: -9 kcal/mol; other: -TΔS [1, 9]: 4.3 kcal/mol; other: ΔH [1, 9]: -13 kcal/mol
10 | RanBP10 CTLH-CRA domain Q519G (domain or fragment) |  |  |  |  |  |  | Kd [5]: 18 µM; stoichiometry N [4]: 1
11 | RanBP10 CTLH-CRA domain (315–608, Δ382–529), wild type V556F |  | 0.8 | 5 kcal/mol | -11 kcal/mol | -16 kcal/mol |  | 
12 | muskelin CTLH-CRA domain, C-terminally shortened (205–719, Δ248–624) (from UniProt Q99PV3 205-719) (domain or fragment) |  |  |  |  |  |  | stoichiometry N [6]: 1
13 | muskelin CTLH-CRA domain (205–735 Δ248–625) (from UniProt Q99PV3) F686L |  |  |  |  |  |  | Kd [7]: 56.7 nM; other: molar ratio n [7]: 1.07; other: -TΔS ([7]; parent: est. 4.1 kcal/mol, read off a plot): -1.6 kcal/mol; dG ([7]; parent: est. -11 kcal/mol, read off a plot): -9.9 kcal/mol; other: ΔH ([7]; parent: est. -16 kcal/mol, read off a plot): -8.2 kcal/mol; Kd [8]: 56.7 nM
14 | RanBP10 CTLH-CRA domain (315–608, Δ382–529), wild type Q519G | 8.49 nM | 0.93 | 4.1 kcal/mol | -11 kcal/mol | -15 kcal/mol |  | 
15 | RanBP10 CTLH-CRA domain (315–608, Δ382–529), wild type F543L; Y548F | 390 nM | 0.91 | -3.3 kcal/mol | -8.8 kcal/mol | -5.4 kcal/mol | 390 nM | 
16 | Twa1 CTLH-CRA domain (58-190), wild type (from UniProt Q9D7M1) A125G; Q126R; T127del; Q128E; A130Q; M143L; E144Q; L147F; A148S; F152Y |  |  |  |  |  |  | Kd [1, 9]: 354 nM; other: molar ratio n [1, 9]: 0.95; dG [1, 9]: -8.8 kcal/mol; other: -TΔS [1, 9]: 3.4 kcal/mol; other: ΔH [1, 9]: -12 kcal/mol
